In patent US20240034776A1 (FUDAN UNIVERSITY, published 2024):

T1: P8 polypeptide with site 3 (L) mutated to alanine (human)
T1 construct: also called P8 L3A
T1 peptide: RLAEMEFEERKRAAE

T2: P8 polypeptide with site 7 (F) mutated to alanine (human)
T2 construct: also called P8 F7A
T2 peptide: RLLEMEAEERKRAAE

T3: P8 polypeptide with site 10 (R) mutated to alanine (human)
T3 construct: also called P8 R10A
T3 peptide: RLLEMEFEEAKRAAE

T4: P8 polypeptide with site 1 (R) mutated to alanine (human)
T4 construct: also called P8 R1A
T4 peptide: ALLEMEFEERKRAAE

T5: P8 polypeptide with site 2 (L) mutated to alanine (human)
T5 construct: also called P8 L2A
T5 peptide: RALEMEFEERKRAAE

T6: P8 polypeptide with site 4 (E) mutated to alanine (human)
T6 construct: also called P8 E4A
T6 peptide: RLLAMEFEERKRAAE

T7: P8 polypeptide with site 5 (M) mutated to alanine (human)
T7 construct: also called P8 M5A
T7 peptide: RLLEAEFEERKRAAE

T8: P8 polypeptide with site 6 (E) mutated to alanine (human)
T8 construct: also called P8 E6A
T8 peptide: RLLEMAFEERKRAAE

T9: P8 polypeptide with site 8 (E) mutated to alanine (human)
T9 construct: also called P8 E8A
T9 peptide: RLLEMEFAERKRAAE

T10: P8 polypeptide with site 9 (E) mutated to alanine (human)
T10 construct: also called P8 E9A
T10 peptide: RLLEMEFEARKRAAE

T11: P8 polypeptide with site 11 (K) mutated to alanine (human)
T11 construct: also called P8 K11A
T11 peptide: RLLEMEFEERARAAE

T12: P8 polypeptide with site 12 (R) mutated to alanine (human)
T12 construct: also called P8 R12A
T12 peptide: RLLEMEFEERKAAAE

T13: P8 polypeptide with site 15 (E) mutated to alanine (human)
T13 construct: also called P8 E15A
T13 peptide: RLLEMEFEERKRAAA

T14: ITPRIPL1 P8 polypeptide (human)
T14 construct: also called human ITPRIPL1 P8 polypeptide; polypeptide segment P8
T14 peptide: RLLEMEFEERKRAAE

T15: NRP2 extracellular domain protein with hFc (Sino Biological) (UniProt O60462 21-864)
T15 chain: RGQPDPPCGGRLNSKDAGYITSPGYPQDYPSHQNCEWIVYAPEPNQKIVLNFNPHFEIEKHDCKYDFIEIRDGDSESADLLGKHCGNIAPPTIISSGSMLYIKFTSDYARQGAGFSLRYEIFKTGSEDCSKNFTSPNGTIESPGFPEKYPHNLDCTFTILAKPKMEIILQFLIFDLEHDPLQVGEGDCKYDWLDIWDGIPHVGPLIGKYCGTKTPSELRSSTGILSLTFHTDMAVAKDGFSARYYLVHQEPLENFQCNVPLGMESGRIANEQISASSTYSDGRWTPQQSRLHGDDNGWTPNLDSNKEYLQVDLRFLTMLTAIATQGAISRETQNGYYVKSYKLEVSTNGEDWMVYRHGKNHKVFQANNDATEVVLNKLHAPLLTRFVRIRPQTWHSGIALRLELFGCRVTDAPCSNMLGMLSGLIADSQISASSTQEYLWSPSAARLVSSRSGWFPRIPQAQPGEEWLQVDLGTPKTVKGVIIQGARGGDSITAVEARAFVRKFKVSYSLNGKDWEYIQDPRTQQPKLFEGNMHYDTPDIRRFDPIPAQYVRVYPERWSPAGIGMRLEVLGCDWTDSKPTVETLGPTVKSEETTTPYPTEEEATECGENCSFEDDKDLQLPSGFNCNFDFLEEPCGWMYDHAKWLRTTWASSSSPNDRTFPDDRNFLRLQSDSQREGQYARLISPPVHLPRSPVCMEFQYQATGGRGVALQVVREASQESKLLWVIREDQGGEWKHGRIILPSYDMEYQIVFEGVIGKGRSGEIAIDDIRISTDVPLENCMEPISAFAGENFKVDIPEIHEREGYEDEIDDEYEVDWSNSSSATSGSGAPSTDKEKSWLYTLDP

T16: CD3ε (Met1-Asp126) protein with hFc tag (Sino Biological) (UniProt P07766 22-126)
T16 chain: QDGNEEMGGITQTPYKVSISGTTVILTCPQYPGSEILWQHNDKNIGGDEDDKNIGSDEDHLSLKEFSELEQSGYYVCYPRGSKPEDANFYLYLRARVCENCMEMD

T17: CD3E-human Fc protein (Sino Biological) (UniProt P07766 23-126)
T17 chain: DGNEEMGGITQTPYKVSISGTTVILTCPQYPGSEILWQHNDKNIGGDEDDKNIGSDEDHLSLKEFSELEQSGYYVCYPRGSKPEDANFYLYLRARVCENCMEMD

B1: monoclonal antibody 13B7A6H3 (antibody, mouse IgG1, kappa, V domains shown)
VH: QVQLQQSGPELVKPGASVRMSCKTSGYTFTDYVISWVKQRPGQGLEWIGEIFPRTGSTYYNENFKATATLTADKSSNTAYMQLSSLTSEDSAAYFCAFITSVDWAMEYWGQGTSVTVSS
VL: DVVMTQTPLSLPVSLGDQASISCRSSESLVNSKGNTHLHWYLQKPGQSPKLLIYKVSNRFSGVPDRFSGSGSGTDFTLKISRVEAEDLGVYFCSQSTHAPYTFGGGTKLEIKR
notes: Mouse hybridoma monoclonal; also called 13B7A6H3 monoclonal antibody
B2: ITPRIPL1-RBD recombinant protein (human ITPRIPL1 extracellular domain, 25-103 amino acids, C-terminal 6x-His and Myc tags, Cusabio, from yeast) (ligand)
chain: HPLMVSDRMDLDTLARSRQLEKRMSEEMRLLEMEFEERKRAAEQRQKAENFWTGDTSSDQLVLGKKDMGWPFQADGQEG
notes: also called IT1-RBD protein; ITPRIPL1-RBD-6x-His recombinant protein; not shown: 6x-His and Myc tags at the C terminus

Assays:
[1] = target: T1, P8 polypeptide with site 3 (L) mutated …; assay: ELISA, peptide coated at 1 µg/ml
[2] = target: T2, P8 polypeptide with site 7 (F) mutated …; assay: ELISA, peptide coated at 1 µg/ml
[3] = target: T3, P8 polypeptide with site 10 (R) mutated …; assay: ELISA, peptide coated at 1 µg/ml
[4] = target: T4, P8 polypeptide with site 1 (R) mutated …; assay: ELISA, peptide coated at 1 µg/ml, antibody at 1 µg/ml
[5] = target: T5, P8 polypeptide with site 2 (L) mutated …; assay: as above
[6] = target: T6, P8 polypeptide with site 4 (E) mutated …; assay: as above
[7] = target: T7, P8 polypeptide with site 5 (M) mutated …; assay: as above
[8] = target: T8, P8 polypeptide with site 6 (E) mutated …; assay: as above
[9] = target: T9, P8 polypeptide with site 8 (E) mutated …; assay: as above
[10] = target: T10, P8 polypeptide with site 9 (E) mutated …; assay: as above
[11] = target: T11, P8 polypeptide with site 11 (K) mutated …; assay: as above
[12] = target: T12, P8 polypeptide with site 12 (R) mutated …; assay: as above
[13] = target: T13, P8 polypeptide with site 15 (E) mutated …; assay: as above
ITPRIPL1 P8 polypeptide = target: T14, ITPRIPL1 P8 polypeptide; assay: ELISA, peptides coated at 1 µg/ml, antibody at 1 µg/ml
[14] = target: T15, NRP2 extracellular domain protein with …; assay: ELISA
[15] = target: T16, CD3ε (Met1-Asp126) protein with hFc tag …; assay: ELISA
[16] = target: T17, CD3E-human Fc protein (Sino Biological); assay: BLI (Octet)
[17] = target: T18, HA-tagged CD3ε (expressed from pcDNA3.1 in transfected HCT116 cells) (human, UniProt P07766 23-207); assay: flow cytometry on HCT116-CD3ε cells, 1-4 µg/ml protein, anti-6x-His-FITC
T18 construct: whole, on cells; also called CD3ε-HA; CD3E-HA; not shown: HA tag

Row | Binder | binding result [1] | binding result [2] | binding result [3] | binding result [4] | binding result [5] | binding result [6] | binding result [7] | binding result [8] | binding result [9] | binding result [10] | binding result [11] | binding result [12] | binding result [13] | binding result (ITPRIPL1 P8 polypeptide) | EC50 [14] [µg/mL] | EC50 [15] [µg/mL] | Kd [16] [nM] | binding result [17]
1 | B1 | no binding (tested: 1 µg/ml) | no binding (tested: 1 µg/ml) | no binding (tested: 1 µg/ml) | binds | binds | binds | binds | binds | binds | binds | binds | binds | binds | binds | – | – | – | –
2 | B2 | – | – | – | – | – | – | – | – | – | – | – | – | – | – | 0.418 | 0.255 | 318 | binds
